Reference: patent publication US20130102494A1 (PIERRE FABRE MEDICAMENT, published 2013)

B1: 205A5 monoclonal antibody (murine, secreted by hybridoma CNCM I-4246) (antibody, V domains shown)
VH: QVQLKQSGPGLVQPSQSLSITCTVSGFSLTDYGIQWVRQSPGQGLEWLGVIWRGGSTDYNAPFMSRLSITKDNSKSQVFFRMNSLQADDTAIYYCATSYYRYDGPFTYWGQGTLVTVSA
VL: NIVLTQSPASLAVSLGQRATISCRASESVDSNGNSFIHWYQQKPGQPPKLLIYVASKLESGVPARFSGSGSRTDFTLTIDPVEAEDVATYYCQQNNEYPLTFGAGTKLELK
notes: Whole murine monoclonal antibody from hybridoma; mouse IgG1 isotype controls were used beside it; also called m205A5; 205A5 Mab
B2: 227D3 monoclonal antibody (murine, secreted by hybridoma CNCM I-4247) (antibody, V domains shown)
VH: EVKLVESGGDLVKPGGSLQLSCAASGFTFSSYAMSWVRQTPEMRLEWVASIMGGGTTYYPDSVKGRFTISRDIARNILNLQMSSLRSEDTAIYYCARGRDYGIRSYAMDYWGQGTSVTVSS
VL: DIVMTQAAFSNPVTLGTSVSISCRSSKSLLHSNGITYLYWYLQKPGQSPQLLIYQMSNLASGVPDRFSSSGSGTDFTLRISRVEAEDVGVYYCAQNLELPYTFGGGTKLEIK
notes: Whole murine monoclonal antibody from hybridoma; mouse IgG1 isotype controls were used beside it; also called m227D3; 227D3 Mab

Target: T1, dimeric cMet-Fc recombinant protein (rh cMet-Fc, R&D Systems ref. 358-MT/CF) (human, UniProt P08581 25-932)
T1 construct: extracellular domain; Bought reagent; also called cMet extracellular domain fusion protein; recombinant human cMet protein; not shown: Fc part
T1 sequence (P08581 25-932): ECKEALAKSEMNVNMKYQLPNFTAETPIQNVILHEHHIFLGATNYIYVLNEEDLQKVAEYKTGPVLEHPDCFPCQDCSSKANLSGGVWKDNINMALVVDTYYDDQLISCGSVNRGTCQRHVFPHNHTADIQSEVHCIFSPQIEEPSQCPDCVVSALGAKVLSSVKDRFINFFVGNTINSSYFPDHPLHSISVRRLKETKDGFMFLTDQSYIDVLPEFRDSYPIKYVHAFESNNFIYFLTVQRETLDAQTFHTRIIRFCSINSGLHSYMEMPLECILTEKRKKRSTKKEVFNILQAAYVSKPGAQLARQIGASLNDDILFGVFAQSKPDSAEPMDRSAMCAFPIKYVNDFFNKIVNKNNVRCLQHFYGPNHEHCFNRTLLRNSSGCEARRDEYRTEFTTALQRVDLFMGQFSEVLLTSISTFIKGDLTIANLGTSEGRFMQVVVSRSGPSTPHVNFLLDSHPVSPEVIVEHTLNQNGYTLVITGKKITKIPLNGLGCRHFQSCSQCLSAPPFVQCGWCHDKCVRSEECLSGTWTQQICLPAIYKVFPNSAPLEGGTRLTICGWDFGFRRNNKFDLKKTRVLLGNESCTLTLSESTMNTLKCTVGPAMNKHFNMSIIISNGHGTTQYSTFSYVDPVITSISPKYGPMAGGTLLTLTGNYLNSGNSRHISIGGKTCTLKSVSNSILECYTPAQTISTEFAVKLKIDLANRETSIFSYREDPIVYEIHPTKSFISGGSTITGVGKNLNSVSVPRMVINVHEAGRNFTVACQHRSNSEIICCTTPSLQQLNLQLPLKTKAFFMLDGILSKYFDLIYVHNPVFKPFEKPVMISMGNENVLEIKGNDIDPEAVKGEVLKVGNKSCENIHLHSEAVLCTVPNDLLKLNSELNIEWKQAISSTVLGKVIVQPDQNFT
Assay: ELISA on coated dimeric cMet-Fc
Method: Obtained hybridomas were initially screened by ELISA on the dimeric cMet-Fc recombinant protein. Briefly, the recombinant human cMet protein was coated overnight at 4° C. to Immulon II 96-well plates and, after a 1 h blocking step with a 0.5% gelatine solution, pure hybridoma supernatant was added for an additional 1 h at 37° C. Then plates were washed and a goat anti-mouse (Jackson) specific IgG HRP was added for 1 h at 37° C. Reaction development was performed using the TMB substrate solution. Then a second screen was performed by FACS analysis on […] cell line, that express moderate to high levels of cMet, to be sure that the produced antibodies will be able to also recognize the native receptor on tumor cells. For that purpose 2×10⁵ cells were incubated with either 10 μg/ml of m205A5, m227D3 or m10D₉ (IgG1 isotype control Mab) for 20 min at 4° C. After 3 washing in phosphate-buffered saline (PBS) supplemented with 1% BSA and 0.01% NaN₃, cells were incubated with secondary antibody Goat anti-mouse Alexa 488 (dilution 1/500) for 20 minutes at 4° C. After 3 additional washings in PBS supplemented with 1% BSA and 0.1% NaN₃, cells were analyzed by FACS (Facscalibur, Becton-Dickinson). At least 5000 cells were assessed to calculate the mean value of fluorescence intensity.

Binder | binding result
B1 | binds
B2 | binds
